Data reported in patent US12644128B2, “Method for producing HSL protein having catalytic activity for 2-oxoglutaric acid-dependently oxidizing 4-HPPD inhibitor” (National Agriculture and Food Research Organization, priority 2017, dated 2026).
“Also recorded” adds a separate entry of the source.

Legend:
[1] = 4-HPPD inhibitor decomposition activity by HPLC, substrate BBC-OH; format: biochemical; conditions: cell-free synthesized protein; FeCl2, ascorbic acid, 2-oxoglutarate; 30° C. for 3 hours; HPLC
Excerpt: (§1) Then, the decomposition reaction of a 4-HPPD inhibitor was examined in the presence of divalent iron ions, 2-oxoglutarate, and molecular oxygen in a test tube by a method described later using the HIS1 protein prepared by this cell-free protein synthesis system.
(§2) Here, in commercially-available wheat germ extracts, dithiothreitol (DTT) is used as a reducing agent and a protein synthesizing reaction liquid also contains DTT. It was confirmed in advance by liquid chromatography that under the coexistence of divalent iron ions and ascorbic acid, which is a stabilizer for the divalent iron ions, DTT generated radical compounds and secondarily affected the enzyme reaction of HIS1 proteins. For this reason, in the present Example, an unreported protein synthesizing reaction system using Tris (2-carboxyethyl) phosphine (TCEP) as a reducing agent instead of DTT was newly constructed, with which the synthesis of HIS1 proteins and the like was conducted to examine the 4-HPPD inhibitor decomposition activity of these. The decomposition activity was analyzed on the reaction liquid of the protein and the 4-HPPD inhibitor using a high-performance liquid chromatography (mobile phase; 0.5% acetic acid water:acetonitrile=65:35, flow rate; 1 mL/min, feeding; isocratic, column; CAPCELL PAK ADME S5).
Then, the amounts of the synthesized proteins obtained in Examples 1 to 4 as described above were estimated as described below, followed by the analysis on the 4-HPPD inhibitor decomposition activities.
Cell-free protein synthesis was conducted without adding [^14C]-Leucine Leucine under the same conditions as those in the estimation of the synthesized amount to estimate the protein concentration of this translation reaction liquid from the above-described estimation. Then, 100 μl of the translation reaction liquid was subjected to buffer exchange to a basic translation buffer (30 mM HEPES-KOH (pH=7.8), 100 mM KOAc) by using the illustra MicroSpin G-25 column (manufactured by GE Healthcare). The amounts of the solution before and after the buffer exchange were measured and the estimated protein concentration was corrected.
An enzyme reaction liquid was prepared by mixing 250 mM of HEPES-KOH (pH 7.0) with a mixture liquid, which contained 0.25 mM of FeCl2, 1.5 mM of ascorbic acid, 1.5 mM of 2-oxoglutarate, and 0.75 mM of a substrate, and a translation reaction liquid, which contained a synthesized enzyme protein, in a proportion of 40% and 60%, respectively. After incubation at 30° C. for 3 hours, 100% methanol in the same amount as the enzyme reaction liquid was added and sufficiently mixed, followed by being left to stand for 5 minutes on ice. This was subjected to centrifuge separation (20, 400 g, 20 minutes, 4° C.) and the supernatant was passed through Cosmonice Filter W (0.45 μm) (manufactured by Nacalai Tesque, Inc.) to obtain a sample for high-performance liquid chromatography. The analysis on the substrate and the product before and after the enzyme reaction was conducted by loading a column_Pro C18 (150×4.6 mm I.D.) (manufactured by YMC Co., Ltd.) on a high-performance liquid chromatography device_ELITE LaChrom L-2000 series (manufactured by Hitachi, Ltd.). Elution was conducted at a flow speed of 1 mL/min and a column temperature of 40° C. under solvent conditions of acetonitrile:water (1% acetic acid)=55:45 or 50:50 (BBC-OH), acetonitrile:water (1% acetic acid)=45:55 (Sulcotrione), acetonitrile:water (1% acetic acid)=45:55 (Mesotrione), acetonitrile:water (1% acetic acid)=55:45 or 50:50 (tefryltrone), and acetonitrile:water (1% acetic acid)=55:45 or 50:50 (Tembotrione), respectively, and the compound was detected at an ultraviolet wavelength of 286 nm.
(§3) Note that the 5-point scale of the decomposition activity in each of FIGS. 12 to 17 is based on a relative value of the degree of decrease in a substrate-derived peak area detected by HPLC where the degree of decrease in the HIS1 protein was designated by 5. […]

[2] = 4-HPPD inhibitor decomposition activity by HPLC, substrate tefuryltrione; format: biochemical; conditions: cell-free synthesized protein; FeCl2, ascorbic acid, 2-oxoglutarate; 30° C. for 3 hours; HPLC
Excerpt: as §1
as §2, with “S5). […]” for “S5).”
(§4) Cell-free protein synthesis was conducted without adding [^14C]-Leucine Leucine under the same conditions as those in the estimation of the synthesized amount to estimate the protein concentration of this translation reaction liquid from the above-described estimation. […] The amounts of the solution before and after the buffer exchange were measured and the estimated protein concentration was corrected. […]
as §3

[3] = 4-HPPD inhibitor decomposition activity by HPLC, substrate sulcotrione; format: biochemical; conditions: cell-free synthesized protein; FeCl2, ascorbic acid, 2-oxoglutarate; 30° C. for 3 hours; HPLC
Excerpt: as §1
as §2, with “S5). […]” for “S5).”
as §4, §3

[4] = 4-HPPD inhibitor decomposition activity by HPLC, substrate mesotrione; format: biochemical; conditions: cell-free synthesized protein, not shown in the figures
Description: (§5) Then, the amounts of the synthesized proteins obtained in Examples 1 to 4 as described above were estimated as described below, followed by the analysis on the 4-HPPD inhibitor decomposition activities. Cell-free protein synthesis was conducted without adding [^14C]-Leucine Leucine under the same conditions as those in the estimation of the synthesized amount to estimate the protein concentration of this translation reaction liquid from the above-described estimation. Then, 100 μl of the translation reaction liquid was subjected to buffer exchange to a basic translation buffer (30 mM HEPES-KOH (pH=7.8), 100 mM KOAc) by using the illustra MicroSpin G-25 column (manufactured by GE Healthcare). The amounts of the solution before and after the buffer exchange were measured and the estimated protein concentration was corrected. […] Elution was conducted at a flow speed of 1 mL/min and a column temperature of 40° C. under solvent conditions of acetonitrile:water (1% acetic acid)=55:45 or 50:50 (BBC-OH), acetonitrile:water (1% acetic acid)=45:55 (Sulcotrione), acetonitrile:water (1% acetic acid)=45:55 (Mesotrione), acetonitrile:water (1% acetic acid)=55:45 or 50:50 (tefryltrone), and acetonitrile:water (1% acetic acid)=55:45 or 50:50 (Tembotrione), respectively, and the compound was detected at an ultraviolet wavelength of 286 nm.

[5] = 4-HPPD inhibitor decomposition activity by HPLC, substrate tembotrione; format: biochemical; conditions: cell-free synthesized protein, not shown in the figures
Description: as §5

[6] = test system: benzobicyclon-susceptible cultivar "Yamadawara"; test: Resistance to BBC of rice expressing OsHSL1 or its F140H mutant; format: in vivo; conditions: T1 seeds, MS medium containing 0.25 μM BBC, 30° C., bright place, 8 days
Description: Next, the efficacy of the F140H mutation was confirmed using rice. Specifically, first, an mHSL1 gene obtained by modifying phenylalanine at position 140 in a rice HSL1 cDNA gene to histidine was prepared. Subsequently, the mutated gene or an HSL1 gene in which the mutation was not introduced was linked to downstream of the 35S promoter and was cloned together with a hygromycin-resistance gene expression cassette in the binary vector. Then, these vectors were each introduced into a benzobicyclon-susceptible cultivar “Yamadawara” by an agrobacterium method and recombinant rice was grown.
The recombinant rice (T1) seeds thus produced and the seeds of the original cultivar “Yamadawara” were tested and seeded on an MS medium containing 0.25 μM BBC in a sterile manner and grown at 30° C. in a bright place for 8 days.

B1: OsHSL1 protein: rice-derived HSL protein, typically a protein having an amino acid sequence of SEQ ID NO: 4 (protein, listed as Oryza sativa)
chain: MADESWRTPAIVQELAAAGVEEPPSRYVLGEKDRSDELVAAELPEPIPVVDLSRLAGADEAAKLRAALQNWGFFLLTNHGVETSLMDDVLNLAREFFNQPIERKRKFSNLIDGKNFQVEGYGTDRVVTQDQILDWSDRLFLRVEPKEERNLAFWPDHPESFRDVLNEYASRTKRIRDDIVQAMSKLLGLDEDYFFDRLNKAPALARFNYYPPCPRPDLVFGVRPHSDGSLFTILLVDEDVGGLQIQRDGKWYNVQVTPNTLLINLGDTMEVLCNGIFRSPVHRVVTNAERERISLAMFYSVNDEKDIGPAAGLLDENRPARYRKVSVGEFRAGIIGKFSRRERYIDSLKI
BBC-OH decomposition activity [1]: hardly observed; also recorded: only very weak decomposition activity
tefuryltrione decomposition activity [2]: lower than that of the HIS1 protein; also recorded: had the decomposition activity, which was less effective than that of the HIS1 protein
sulcotrione decomposition activity [3]: hardly observed; also recorded: only very weak decomposition activity
mesotrione decomposition activity [4]: only very weak decomposition activity
tembotrione decomposition activity [5]: only very weak decomposition activity
BBC resistance (growth condition) [6]: whitened
